In paper PMC4442525 (2015):

B1: FLAG-tagged KIR3DL1*001 [human] / HLA-B*57:01-LF9 tetramer [human | not stated] (parent complex)
chain 1: HMGGQDKPFLSAWPSAVVPRGGHVTLRCHYRHRFNNFMLYKEDRIHIPIFHGRIFQESFNMSPVTTAHAGNYTCRGSHPHSPTGWSAPSNPVVIMVTGNHRKPSLLAHPGPLVKSGERVILQCWSDIMFEHFFLHKEGISKDPSRLVGQIHDGVSKANFSIGPMMLALAGTYRCYGSVTHTPYQLSAPSDPLDIVVTGPYEKPSLSAQPGPKVQAGESVTLSCSSRSSYDMYHLSREGGAHERRLPAVRKVNRTFQADFPLGPATHGGTYRCFGSFRHSPYEWSDPSDPLLVSVTGNPSSSWPSPTEPSSKSGNPRHLHILIGTSVVIILFILLLFFLLHLWCSNKKNAAVMDQEPAGNRTANSEDSDEQDPEEVTYAQLDHCVFTQRKITRPSQRPKTPPTDTILYTELPNAKPRSKVVSCP
chain 2: not shown
chain 3: not shown
chain 4: LSSPVTKSF

Variants of: B1
Test: pHLA tetramer staining of transfected HEK293T cells; read off a plot

Variant | response
chain 1 L166R | ~8
chain 1 P163S | ~81
chain 1 G138W | ~83
chain 1 P199L | ~71

Variants of: B1
Test: as above
Remark: another data set of the same source

Variant | response
chain 4 S8F | ~110
chain 4 S8R | ~72
chain 4 S8H | ~99
chain 4 S8A | ~57
chain 4 S8L | ~58

Variants of: B1
Test: as above
Remark: another data set of the same source

Variant | response
chain 4 S8E | ~6
